These results are taken from paper PMC12245071.

For the experiment, the target named is Bacteriophage T4 capsid, major capsid protein gp23* (bacteriophage T4). The experiment is described as follows: co-sedimentation.

Turning to “Soc-SpyCatcher displayed on the T4 phage capsid (T4-SpyCatcher phage) (designed binder)”, the copies per capsid (copies per capsid) came to 205.

The substance “M2e-Hoc fusion (influenza M2e peptide on the tip of the T4 Hoc fiber)” displayed a copies per capsid (copies per capsid) of 90.
